From patent publication US8932825B2 come the findings set out here.

This experiment deals with Kringle 3 domain of human plasminogen (K3) with a C-terminal hexa-histidine tag, made in P. pastoris (human) (UniProt P00747).

In the case of “beta 1,4-galactosyltransferase from bovine milk (from UniProt P08037) (enzyme)”, the increase in mass by MALDI-TOF mass spectrometry of the protein and of its released N-glycans turned out to be 325 Da.
